Publication doi:10.1101/2024.12.16.628640

Columns and labels:
[1] = biological target: D-glucose isomerase (XylA) of Xanthomonas campestris with the exchange W147S, His-tagged (Xanthomonas campestris); assay: SEC
[2] = biological target: D-glucose isomerase (D-xylose isomerase, XylA) of Xanthomonas campestris, His-tagged (Xanthomonas campestris); assay: SEC

Row | stoichiometry N [1] | stoichiometry N [2] | Substance
1 | 2 |  | D-glucose isomerase (XylA) of Xanthomonas campestris with the exchange W147S, His-tagged (enzyme)
2 |  | 2 | D-glucose isomerase (D-xylose isomerase, XylA) of Xanthomonas campestris, His-tagged (enzyme)
